T1: Orai1 peptide (first extracellular domain) (UniProt Q96D31)
T1 chain: DADHDYPPGLL


Assays:
[1] = biological target: Orai1 peptide (first extracellular domain) (UniProt Q96D31); assay: ELONA; conditions: 0.1 ug/well aptamer; lowest of six; value from stated range; SHCMK: 20 mM Hepes pH 7.35, 120 mM KCl, 1 mM CaCl2, 1 mM MgCl2; 37 C, 3 h (2 h for Kd); peptide-coated plates, wash with 0.05% Tween …
Target sequence in this assay (Q96D31 whole entry, looked up, the tested form may be a part): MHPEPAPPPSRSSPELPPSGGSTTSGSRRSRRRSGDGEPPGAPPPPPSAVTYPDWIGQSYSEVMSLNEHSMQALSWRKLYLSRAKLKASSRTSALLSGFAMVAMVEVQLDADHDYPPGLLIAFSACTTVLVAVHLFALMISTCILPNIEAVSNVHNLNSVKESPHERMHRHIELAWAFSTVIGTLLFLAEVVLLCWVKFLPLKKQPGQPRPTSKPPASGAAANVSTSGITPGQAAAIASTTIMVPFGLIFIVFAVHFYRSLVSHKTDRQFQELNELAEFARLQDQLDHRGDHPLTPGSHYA

[2] = biological target: T1, Orai1 peptide (first extracellular …); assay: ELONA; SHCMK: 20 mM Hepes pH 7.35, 120 mM KCl, 1 mM CaCl2, 1 mM MgCl2; 37 C, 3 h (2 h for Kd); peptide-coated plates, wash with 0.05% Tween 20; conditions: tags: none stated; coated on polystyrene plate; label: biotin

Molecule | binding signal [1] | binding result [2]
TGCGAGCATCTCGCTATCAGAGTGAGGTGATTTGTGCATA [Aptamer Y8] | 1.18 OD450 | –
TCAAGCTTATGACCGAGCGCCGCGTGCC (ssDNA) [ONT1] | – | no binding
GGTACCGCAGAATTGGGAAGAGATAGA (ssDNA) [ONT3] | – | no binding
TAGGATCCCCAGACCTGCCCGCCATGT (ssDNA) [ONT2] | – | no binding

Reference: PMC4938386, “Calcium Influx of Mast Cells Is Inhibited by Aptamers Targeting the First Extracellular Domain of Orai1”
